Results taken from article PMC3345047 (Molecular Microbiology, 2012).

Molecular target: the molecule itself
Experiment: SEC

B1: pro-PanD (uncleaved L-aspartate-alpha-decarboxylase) of Salmonella enterica (enzyme, S. enterica serovar Typhimurium LT2, UniProt P65662 1-126, looked up)
chain: MIRTMLQGKLHRVKVTQADLHYEGSCAIDQDFLDASGILENEAIDIWNVTNGKRFSTYAIAAERGSRIISVNGAAAHCAEVGDIVIIASFVTMSDEEARTWRPKVAYFEGDNEMKRTAKAIPVQVA
- stoichiometry N: 4
